According to patent publication US6600012:

Molecular target: HLA.A2 on T2 mutant cells
Test: T2 cell HLA.A2 upregulation assay, flow cytometry with MA2.1

% Change in mean channel intensity: 48%
B1: …, MUC-1 tandem repeat synthetic 9 mer (peptide)
peptide: SAPDTRPAP
modifications: not checked
